Results taken from PMC3241645 (Nucleic Acids Research, 2011).

Assays:
[1] = target: Helicobacter pylori GluRS2 (non-canonical glutamyl-tRNA synthetase 2) (Helicobacter pylori) (UniProt O25360); test: dynamic light scattering
[2] = target: Helicobacter pylori GluRS2 (non-canonical glutamyl-tRNA synthetase 2) (Helicobacter pylori) (UniProt O25360); test: nanopore optical interferometry
[3] = target: the molecule itself; test: nanopore optical interferometry

| Molecule | stoichiometry N [1] | average optical path difference at plateau, 0.5 µM GatCAB [2] [nm] | average optical path difference at plateau, 2 µM GatCAB [2] [nm] | average optical path difference at plateau, 5 µM GatCAB [2] [nm] | average optical path difference at plateau, 10 µM GatCAB [2] [nm] | average optical path difference at plateau, 19 µM GatCAB [2] [nm] | binding result [3] |
| --- | --- | --- | --- | --- | --- | --- | --- |
| Helicobacter pylori GatCAB (tRNA-dependent amidotransferase) (complex) | 1 | 0.6 | 2.2 | 5.4 | 10.4 | 16.2 |  |
| Helicobacter pylori GluRS2 (non-canonical glutamyl-tRNA synthetase 2) (enzyme, UniProt O25360 1-439, looked up) MLRFAPSPTGDMHIGNLRAAIFNYIVAKQQYKPFLIRIEDTDKERNIEGKDQEILEILKLMGISWDKLVYQSHNIDYHREMAEKLLKENKAFYCYASAEFLEREKEKAKNEKRPFRYSDEWATLEKDKHHAPVVRLKAPNHAVSFNDAIKKEVKFEPDELDSFVLLRQDKSPTYNFACACDDLLYKISLIIRGEDHVSNTPKQILIQQALGSNDPIVYAHLPIILDEVSGKKMSKRDEASSVKWLLNQGFLPVAIANYLITIGNKVPKEVFSLDEAIEWFSLENLSSSPAHFNLKYLKHLNHEHLKLLDDDKLLELTSIKDKNLLGLLRLFIEECGTLLELREKISLFLEPKDIVKTYENEDFKERCLALFNALTSMDFQAYKDFESFKKEAMRLSQLKGKDFFKPLRILLTGNSHGVELPLIFPYIQSHHQEVLRLKA |  |  |  |  |  |  | binds |
